Patent publication US20240299504A1, “COMPOSITIONS AND METHODS FOR TREATING ALZHEIMERS DISEASE” (priority 2023, published 2024)

Target: T1, PTH receptor (PTH1R), parathyroid hormone type 1 receptor, on mouse astrocytes (mouse, UniProt P41593 27-591)
T1 construct: whole, on cells; Endogenous receptor of mouse cells; not isolated or expressed recombinantly
T1 sequence (looked up): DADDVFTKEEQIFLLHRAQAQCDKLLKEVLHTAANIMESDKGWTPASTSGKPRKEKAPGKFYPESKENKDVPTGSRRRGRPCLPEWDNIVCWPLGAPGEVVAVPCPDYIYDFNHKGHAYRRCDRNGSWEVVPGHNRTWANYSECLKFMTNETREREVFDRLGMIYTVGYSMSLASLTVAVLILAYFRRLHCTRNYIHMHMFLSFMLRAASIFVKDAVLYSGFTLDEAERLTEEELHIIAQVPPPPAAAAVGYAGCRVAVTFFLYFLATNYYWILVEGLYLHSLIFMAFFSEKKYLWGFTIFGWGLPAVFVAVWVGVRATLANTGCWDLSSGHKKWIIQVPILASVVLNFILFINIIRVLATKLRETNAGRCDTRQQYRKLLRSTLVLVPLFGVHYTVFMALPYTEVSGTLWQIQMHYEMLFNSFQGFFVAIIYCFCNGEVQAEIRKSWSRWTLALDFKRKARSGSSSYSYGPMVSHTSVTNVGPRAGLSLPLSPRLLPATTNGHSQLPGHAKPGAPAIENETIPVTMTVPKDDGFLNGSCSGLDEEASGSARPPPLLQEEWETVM
Test: summary sentence of the example; inferred from Biotin-PTH1-34 co-staining with astrocytes, PTH1R expression and signalling in cultured astrocytes

B1: Parathyroid hormone (human) PTH1-34 (TOCRIS Bioscience, Cat #3011/1) (peptide, UniProt P01270 32-65, looked up)
peptide: SVSEIQLMHNLGKHLNSMERVEWLRKKLQDVHNF
notes: range 1-34; Residues 1-34 count on mature PTH, not on the precursor; also called hPTH1-34; Teriparatide
B1: binds.
